B2: recombinant His-dCENP-C(1264-1411) (domain or fragment, Drosophila melanogaster, UniProt Q9VHP9 1264-1411, looked up)
chain: GPVVFSTPLRDEQEEASTKLMQWLRGVGDAPPSASMSDENASVSSANELIFCQVDGIDYAFYNTKEKAMLGYMRFKPYQKRSMKQAKVHPLKLLVQFGEFNVETLAVGEEKEVHSVLRVGDMIEIDRGTRYSIQNAIDKVSVLMCIRS
notes: dimer by SEC-MALS; source: recombinant, T7-promoter vector; not shown: His, N-terminal, kept

What was measured:
[1] = biological target: T1, recombinant CAL1(1-160) (Drosophila melanogaster, UniProt Q9VEN2 1-160); test: SEC-MALS; recombinant proteins; Superdex 200 10/300 Increase GL, 50 mM HEPES pH 8.0, 150 or 300 mM NaCl, 1 mM TCEP, 22°C, 100 μl of 1-5 mg/ml; conditions: both partners purified
T1 construct: CAL1, residues 1-160; the vector name points to a 3C protease site; monomer by SEC-MALS; also called monomeric N-terminal fragment of CAL1; source: recombinant, T7-promoter vector pEC-K-3C-His-GST
T1 sequence (looked up): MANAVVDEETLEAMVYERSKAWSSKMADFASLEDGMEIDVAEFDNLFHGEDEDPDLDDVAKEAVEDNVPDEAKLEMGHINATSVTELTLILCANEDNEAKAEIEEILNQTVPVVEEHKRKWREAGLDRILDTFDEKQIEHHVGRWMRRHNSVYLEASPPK

[2] = biological target: T2, recombinant dH4 (Drosophila melanogaster, UniProt P84040 1-103); test: as above; conditions: both partners purified
T2 construct: Drosophila histone H4 (dH4); source: recombinant, T7-promoter vector pET3a (from Karolin Luger)

[3] = biological target: the molecule itself; test: as above
[4] = biological target: B2; test: as above; conditions: both partners purified
[5] = biological target: B2; test: mass spectrometry (iBAQ peptide intensities) of the complex; ratio of iBAQ intensities of the two fragments within the recombinant His-dCENP-C(1264-1411)/CAL1(841-979) complex; conditions: both partners purified
[6] = biological target: T3, dCENP-A^C-GFP-LacI (Drosophila melanogaster, UniProt Q9V6Q2 1-202; P02299 116-136); test: LacI/LacO tethering and recruitment assay (immunofluorescence); bait fused to GFP-LacI tethered to chromosomal LacO arrays in human U2OS cells; HA- or V5-tagged prey transiently co-expressed; IF 48 h after transfection, prey intensity at the LacO spot or % of cells; no third Drosophila centromere protein co-expressed; conditions: partners not purified
T3 construct: Drosophila CENP-A, N, L1 and α2 domains, residues 1-202; Drosophila histone H3, C region, residues 116-136; also called dCENP-A^C chimera; source: U2OS-LacO cells, transiently transfected, in cells; not shown: GFP-LacI (LacI lacking 11 C-terminal amino acids), C-terminal, kept
T3 sequence (Q9V6Q2 other isoform, or with tags, fused parts or gaps): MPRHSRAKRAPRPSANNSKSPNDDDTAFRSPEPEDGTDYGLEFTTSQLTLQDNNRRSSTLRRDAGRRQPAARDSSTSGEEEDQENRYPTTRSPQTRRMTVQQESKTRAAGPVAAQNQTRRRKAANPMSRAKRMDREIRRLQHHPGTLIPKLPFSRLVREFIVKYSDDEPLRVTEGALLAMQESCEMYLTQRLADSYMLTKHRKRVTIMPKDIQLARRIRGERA

B1: recombinant dCENP-A(101-225) (domain or fragment, Drosophila melanogaster, UniProt Q9V6Q2 101-225, looked up)
chain: QQESKTRAAGPVAAQNQTRRRKAANPMSRAKRMDREIRRLQHHPGTLIPKLPFSRLVREFIVKYSDDEPLRVTEGALLAMQESCEMYLTQRLADSYMLTKHRNRVTLEVRDMALMAYICDRGRQF
notes: also called dCENP-A lacking the N-terminal tail; source: recombinant, T7-promoter vector pET3a
binding result [1]: binds | binding result [2]: binds

B2
stoichiometry N [3]: 2

B3: recombinant CAL1(841-979) (domain or fragment, Drosophila melanogaster, UniProt Q9VEN2 841-979, looked up)
chain: GGDPDCTVVTSTTGCEPPASERQEIPATIKITKRGILLHSPSAPEGASFTLTEQGLGKIIGERWARKYLKYHIGSRSFDSRHSVYYQPTPQLAAALSAPQDAQNIGNISGSSASDDDIFEQINRYGTVYSILENNSGDK
notes: also called CAL1 monomer fragment; source: recombinant, vector pEC-K-3C-His-GST
stoichiometry N [4]: 0.5 CAL1 chains per dCENP-C chain | stoichiometry N [5]: ~0.5 CAL1 chains per dCENP-C chain

B4: CAL1-V5 (natural protein, Drosophila melanogaster, UniProt Q9VEN2 1-979, looked up)
chain: MANAVVDEETLEAMVYERSKAWSSKMADFASLEDGMEIDVAEFDNLFHGEDEDPDLDDVAKEAVEDNVPDEAKLEMGHINATSVTELTLILCANEDNEAKAEIEEILNQTVPVVEEHKRKWREAGLDRILDTFDEKQIEHHVGRWMRRHNSVYLEASPPKYLPPHHNSISDESDESMHSIDTARYIQQSRRRNAHMTNKNMTTIKMYRKHSHKRDELRAKYAYGDEQEHRHHMQAVLLRRRERERQLAYLASTPMQCVYSSGHHMRRKNLRKRRINSWMFDSASSSEEDTSFGGCDCHSCRRHYALSRSVYQSCPYGRGQREYHHRQMASRTMHTMRRQHTFDMEMDLRPRLPENECSCCNSDRLCSNVIHIANSSTEEWVVENRSNHLTQETQEKTRKQKHQPMDARKVSHQPVCSKGHEQKPLSSKATSVSKLVLSKEKYMQMFDSESSDEDNALAKKGLLCCSDKKKGMTFPTPNAAGKITHPTSSAKKAIRKEARPNGLAQIQEEGPTATNSPIESTYLPVAHMKSVSIDGSSGTSATFESPAKKAPKRGIRETSPLNGNELQQLISTIPIADEKASSLMEKVDNCIGRESFDDRNKDFMHMENSSTKTAVEKSTKQKRVSGKKSEIPKSIITNNEILEKNSTETLSEKQVAAKAKKQSVRKTGATGKPSTSRLKKSEKTKTTSSVTSTSKLEQVREEESDVSSEVLAKPKPQCSTTASILKQGGDGASNSEDDLQIALAMSKATYKEEQQKRKKTKREPSNKQPQSPAEKSMTVFNNQSVACNSTALANDTACYRVLPKRRGVKRAAAVSTTEEKTATNSSSSPTSSLEEMGSPTGGDPDCTVVTSTTGCEPPASERQEIPATIKITKRGILLHSPSAPEGASFTLTEQGLGKIIGERWARKYLKYHIGSRSFDSRHSVYYQPTPQLAAALSAPQDAQNIGNISGSSASDDDIFEQINRYGTVYSILENNSGDK
notes: CAL1, Drosophila dCENP-A-specific chaperone; also called V5-tagged CAL1; source: U2OS-LacO cells, transiently transfected, in cells; not shown: V5, C-terminal, kept
CAL1 recruitment relative to wild-type dCENP-A [6]: 60%

From paper PMC6900781, “Reconstituting Drosophila Centromere Identity in Human Cells” (Cell Reports, 2019)
